Measurements taken from patent US20060252692A1, “Inhibitors for use in hemostasis” (ZymoGenetics, Inc., priority 2002, published 2006).

How the values were obtained:
[1] = system: A7-BaF-3 cells; assay: Proliferation assay on zsig37-coated plates, A7-BaF-3; type: cell-based; conditions: 5,000 cells/well
Description: A second assay was performed with TF-1, DA-1, an IL-3 dependent cell line derived from the lymph node of a mouse with a B-cell lymphoma by outgrowth in IL-3 media, pre-B (p53−/− mouse marrow cells, IL-7 dependent, B220+, Thy1 low, Sca-1+), and A7BaF-3 cell lines as described above at 5,000 cells/well. BHK cells were also plated at 500 cells/well.

[2] = system: CCC4 osteoblast cell line, serum response element (SRE) luciferase; assay: SRE-luciferase assay in CCC4 osteoblast cell line; type: cell-based, mice; conditions: 1000 ng/ml zsig37, four hours
Description: Zsig37 polypeptides were assayed in a high throughput, in vitro assay to identify substances that selectively activate cellular responses in immortalized osteoblast cell lines. A mature osteoblast cell line derived from p53−/− (deficient) mice, CCC4, that is transfected with a plasmid containing an inducible serum response element (SRE) driving the expression of luciferase was used in the assay. These cells also express endogenous PTH, PDGF and bFGF receptors.
CCC4 lines were trypsinized and adjusted to 5×10^4 cells/ml in plating medium (alpha-MEM, 1% heat inactivated fetal bovine serum, 1 mM Na pyruvate and 2 mM L-glutamate) and plated (200 μl/well) into Dynatech Microlite opaque white microtiter plates (Dynatech, Chantilly, Va.) and incubated overnight at 37° C., 5% CO2. The growth medium was then aspirated and replaced with 50 μl/well assay medium (F-12 HAM, 0.5% bovine serum albumin, 20 mM HEPES, 1 mM sodium pyruvate and 2 mM L-glutamate). […] Fifty microliters/well of luciferase substrate (Luciferase Assay Reagent, E1501, Promega Corp.) was added and the Luciferase activity was detected using a Labsystems LUMINOSKAN at 2 second/well following a one second delay. The average basal (uninduced) signal was subtracted from readings as a percentage of the maximal induction produced by 3 ng/ml bFGF. […]

[3] = system: template bleeding time; set-up: species or system Macaca fascicularis; conditions: cynomolgus monkey, in vivo
Text: In order to evaluate one aspect of the safety of zsig37 and its effect on template bleeding time, a pre-clinical model in Macaca fascicularis was used. Time to cessation of bleeding from standardized incisions on the animal's forearm, a procedure previously described by Wu, et al., Blood, 2002, 99:3623-3628, was employed to assess the effect of zsig37 on bleeding.
Methods. Five female and twelve male, Macaca fascicularis weighing 2.3 to 4.6 kg were used as test subjects on this project. The animals were immobilized with ketamine hydrochloride (Phoenix Scientific) administered intramuscularly at approximately 10 mg/kg. Each animal was examined, and the animal determined to be acceptable for the study. The right forearm, abdomen, ventral neck and inguinal area were shaved free of hair. The animal was transported to the surgical suite (University of Washington Regional Primate Research Center), positioned inside a heated air circulation system and placed onto isoflurane (Abbott Laboratories) inhalation anesthesia delivered through positive pressure ventilation via an endotracheal tube. […] The time to cessation of bleeding was determined and recorded for each animal. Bleeding times were determined for each animal prior to any treatment, after low molecular weight heparin (Lovenox™, Rhone Polenc, Inc.) treatment and after zsig37 treatment.

[4] = system: platelets activated by CRP (platelet GPVI); assay: Inhibition of CRP activation of platelets by zsig37; type: cell-based, human; conditions: plate coated with 5 μg/ml CRP; zsig37 0-200 μg/ml
Description: The lysine containing CRP (Ac-GKO-(GPO)10-GKOGV) (SEQ ID NO:15) was synthesized and cross-linked essentially as described by described by Morton (Morton et al., Biochem. J., 306(2):337-344 (Mar. 1, 1995)). The potency of the cross-linked CRP was determined using a using a modified microplate platelet aggregation method as described previously (Bednar B., et al., Thrombosis Research, 77(5):453-463 (1995)). Platelet rich plasma (PRP) was prepared by centrifugation (150 g, 30 min.) from citrated blood obtained from healthy volunteers. Modified Hepes Tyrodes buffer (10 mM Hepes, 137 mM NaCl, 2.7 mM KCL, 0.4 mM NaH2PO4, 1.2mM NaHCO3, 0.1% dextrose and 0.2% BSA fraction V) was used to adjust the platelet concentration to 2.6×10^8/mL. To determine potency, triplicate wells of 0-20 μg/ml of CRP was mixed with platelets in a 96-well flat bottom plate. As a control, collagen-I norm was assayed in triplicate at a final concentration of 1.25 μg/mL. The plate was agitated on a microplate reader and turbidity was monitored as percent light transmitted at 632 nm. The EC50 for the CRP was determined from 3 assays to be 0.1-0.2 μg/ml. […] The plate was washed three times with 5% BSA/PBS and triplicate wells of 0-200 μg/ml of zsig37 was incubated for 1 hour at room temperature. Platelets were then added and assayed as described.

B1: zsig37: adipocyte complement related protein homolog, polypeptide of SEQ ID NO:2, inhibits collagen-mediated platelet activation and the complement pathway (protein, listed as Homo sapiens)
chain: MGSRGQGLLLAYCLLLAFASGLVLSRVPHVQGEQQEWEGTEELPSPPDHAERAEEQHEKYRPSQDQGLPASRCLRCCDPGTSMYPATAVPQINITILKGEKGDRGDRGLQGKYGKTGSAGARGHTGPKGQKGSMGAPGERCKSHYAAFSVGRKKPMHSNHYYQTVIFDTEFVNLYDHFNMFTGKFYCYVPGLYFFSLNVHTWNQKETYLHIMKNEEEVVILFAQVGDRSIMQSQSLMLELREQDQVWVRLYKGERENAIFSEELDTYITFSGYLVKHATEP
**Q.** B1 was tested. Which “growth of A7-BaF-3 cells” value [1] did it give?
**A.** enhanced the growth

**Q.** And the “luciferase expression as percentage of the maximal induction produced by 3 ng/ml bFGF” value [2]?
**A.** 73 to 75%

**Q.** What about the “template bleeding time vs control (1.0 mg/kg BSA)” value [3] of the same molecule?
**A.** not statistically different

**Q.** And the “inhibition of CRP activation of platelets” value [4]?
**A.** results from 3 of 6 assays demonstrated inhibition of CRP
